Usually EC50 (read off the curve) stands for the concentration giving half of the maximal effect.

Consider two molecules from US20200038523A1 (TECHNISCHE UNIVERSIT T M NCHEN, published 2020).

In this test the target is T1, rhPSMA, extracellular part of human prostate-specific membrane antigen (residues 44-750) with native … (human, UniProt Q04609 44-750).
T1 construct: range 44-750; Secreted from Schneider S2 insect cells, glycosylated; also called wild-type rhPSMA; rhGCPII
Briefly: ELISA: rhPSMA coated on MaxiSorp plate, Anticalin dilution series, detection via Strep-tag II with StrepTactin/AP, absorbance at 405 nm. The text has this: Binding activities of Anticalins selected from the original nave library (A) or resulting from subsequent affinity maturation of the A3 variant (B) were compared in an ELISA. A 96-well MaxiSorp plate was coated with rhPSMA (or ovalbumin as a negative control, not shown) and purified Anticalin variants were applied in dilution series. Anticalin binding was detected using StrepTactin/AP conjugate, followed by chromogenic reaction. Absorption was plotted against the Anticalin concentration and data were analyzed by curve fitting. Binding curves for the best performing clones A3 and A3A5 are shown as solid lines. (CE) SPR sensograms measured for Anticalins A3, A3A5 and A3A5.1 on a BIAcore 2000 instrument. […]
50 μL of rhPSMA (5 μg/mL in TBS) was directly adsorbed onto the surface of a MaxiSorp 96-well plate overnight at 4° C. […] The plates were washed three times and bound Anticalins were detected with StrepTactin-AP as described further above. The data were analyzed using Prism 5 software (GraphPad) and absorption values (A) were fitted according to the formula ΔA=Aₘₐₓ[Lₜₒₜ]/(KD+[Lₜₒₜ]) with the concentration of the applied lipocalin variant [Lₜₒₜ] and the dissociation constant KD.
Specific binding activities of selected Anticalins toward rhPSMA as well as apparent affinity constants were initially determined by ELISA in 96-well Maxisorp plates coated with the recombinant wild-type PSMA protein. […]
On the technique in general: In an ELISA, binding on a coated surface is turned into a signal by an enzyme label.

T1 sequence (Q04609 44-750 limits assumed): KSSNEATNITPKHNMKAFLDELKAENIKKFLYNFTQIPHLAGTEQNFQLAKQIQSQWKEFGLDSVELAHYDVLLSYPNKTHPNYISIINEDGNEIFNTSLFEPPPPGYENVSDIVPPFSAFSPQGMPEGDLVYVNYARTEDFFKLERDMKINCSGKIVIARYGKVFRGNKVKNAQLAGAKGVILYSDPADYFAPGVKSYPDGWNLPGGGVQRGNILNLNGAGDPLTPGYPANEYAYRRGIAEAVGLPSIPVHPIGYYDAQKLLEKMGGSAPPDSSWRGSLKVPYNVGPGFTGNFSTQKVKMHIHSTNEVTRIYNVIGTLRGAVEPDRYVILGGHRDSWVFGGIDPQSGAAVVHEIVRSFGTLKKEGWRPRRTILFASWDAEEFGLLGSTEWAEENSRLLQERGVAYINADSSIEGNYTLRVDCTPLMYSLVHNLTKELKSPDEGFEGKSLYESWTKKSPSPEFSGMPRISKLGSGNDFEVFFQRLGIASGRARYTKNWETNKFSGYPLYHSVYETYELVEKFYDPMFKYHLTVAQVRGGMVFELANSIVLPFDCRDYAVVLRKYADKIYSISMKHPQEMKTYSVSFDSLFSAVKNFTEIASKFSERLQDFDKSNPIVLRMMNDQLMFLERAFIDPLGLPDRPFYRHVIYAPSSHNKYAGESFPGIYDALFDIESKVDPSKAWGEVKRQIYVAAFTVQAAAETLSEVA

B1: Anticalin candidate H5 (designed binder)
chain: QDSTSDLIPAPPLSKVPLQQNFQDNQFHGKWYVVGTAGNWPLREDKDPHKMSATIYELKEDKSYNVTNVQFSSKKCLYFIGTFVPGSQPGEFTLGPIKSAPGQTSGLVRVVSTNYNQHAMVFFKQVIQNREAFIITLYGRTKELTSELKENFIRFSKSLGLPENHIVFPVPIDQCIDG
notes: not shown: C-terminal Strep-tag II
For the molecule B1, the half-maximal effective concentration (EC50 (read off the curve)) is around 6 nM.

B2: Anticalin candidate A2 (designed binder)
chain: QDSTSDLIPAPPLSKVPLQQNFQDNQFHGKWYVVGRAGNKPLREDKDPLKMWATIYELKEDKSYNVTIVWFDFKKCWYRISTFVPGSQPGEFTLGRIKSAPGVTSGLVRVVSTNYNQHAMVFFKYVFQNREWFHITLYGRTKELTSELKENFIRFSKSLGLPENHIVFPVPIDQCIDG
notes: as for B1
For B2, the 50% effective concentration (EC50 (read off the curve)) is around 10 nM.
